Biological target: PARP1 (protein used in the SPRi assay) (UniProt P09874)
Test: SPR; SPRi on a PlexArray HT (V3), 25°C, 1x PBS pH 7.4

UniProt P09874, sequence (P09874 whole entry): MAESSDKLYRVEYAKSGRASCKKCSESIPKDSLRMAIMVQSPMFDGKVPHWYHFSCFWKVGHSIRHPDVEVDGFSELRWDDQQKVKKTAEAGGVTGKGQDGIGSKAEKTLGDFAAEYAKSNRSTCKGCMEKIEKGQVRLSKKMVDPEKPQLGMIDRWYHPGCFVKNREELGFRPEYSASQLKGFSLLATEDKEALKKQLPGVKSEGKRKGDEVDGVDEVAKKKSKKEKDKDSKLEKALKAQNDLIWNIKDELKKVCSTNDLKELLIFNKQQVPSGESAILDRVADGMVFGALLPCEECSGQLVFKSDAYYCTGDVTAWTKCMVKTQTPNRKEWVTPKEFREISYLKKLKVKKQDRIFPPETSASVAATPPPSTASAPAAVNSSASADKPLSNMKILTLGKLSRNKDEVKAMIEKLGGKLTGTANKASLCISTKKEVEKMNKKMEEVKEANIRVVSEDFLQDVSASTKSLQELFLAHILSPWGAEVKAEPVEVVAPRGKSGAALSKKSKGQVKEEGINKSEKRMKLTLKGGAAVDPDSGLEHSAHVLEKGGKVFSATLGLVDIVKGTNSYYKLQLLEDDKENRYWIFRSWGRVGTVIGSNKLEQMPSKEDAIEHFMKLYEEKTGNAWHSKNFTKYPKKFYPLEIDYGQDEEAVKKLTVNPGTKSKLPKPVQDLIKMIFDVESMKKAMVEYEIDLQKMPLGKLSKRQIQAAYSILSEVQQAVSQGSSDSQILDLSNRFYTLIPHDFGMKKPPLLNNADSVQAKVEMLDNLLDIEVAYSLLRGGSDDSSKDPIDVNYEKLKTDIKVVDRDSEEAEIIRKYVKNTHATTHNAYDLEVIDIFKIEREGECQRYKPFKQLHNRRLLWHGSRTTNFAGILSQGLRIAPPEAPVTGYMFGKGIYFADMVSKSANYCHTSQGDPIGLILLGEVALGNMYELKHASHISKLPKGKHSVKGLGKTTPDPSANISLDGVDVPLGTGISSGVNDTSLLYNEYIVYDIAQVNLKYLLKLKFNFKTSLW

F-actin domain of ABL1 (domain or fragment)
Kd: 0.0136 µM

Source: paper PMC6393709
